The target in experiment [1] is human FGFR1c/KLB cell surface receptor complex on iLite FGF21 reporter cells (human, UniProt P11362 22-822; Q86Z14 1-1044). The experiment is described as follows: cell-based or functional assay.
Experiment [2] concerns the target cell surface receptor composed of FGFR1c and co-receptor beta-Klotho (KLB) (human, UniProt P11362 22-822; Q86Z14 1-1044). The experiment is described as follows: cell-based or functional assay.

Where a chain is given by its changes, count along the chain named. Names may count otherwise.
Throughout, for Mean E max (%): reference of the scale not given here.
Throughout, for Mean E max, Luciferase reporter gene assay: reference of the scale not given here.

Sequence of cell surface receptor composed of FGFR1c and co-receptor beta-Klotho (KLB) (P11362 22-822, chain 1 of 2): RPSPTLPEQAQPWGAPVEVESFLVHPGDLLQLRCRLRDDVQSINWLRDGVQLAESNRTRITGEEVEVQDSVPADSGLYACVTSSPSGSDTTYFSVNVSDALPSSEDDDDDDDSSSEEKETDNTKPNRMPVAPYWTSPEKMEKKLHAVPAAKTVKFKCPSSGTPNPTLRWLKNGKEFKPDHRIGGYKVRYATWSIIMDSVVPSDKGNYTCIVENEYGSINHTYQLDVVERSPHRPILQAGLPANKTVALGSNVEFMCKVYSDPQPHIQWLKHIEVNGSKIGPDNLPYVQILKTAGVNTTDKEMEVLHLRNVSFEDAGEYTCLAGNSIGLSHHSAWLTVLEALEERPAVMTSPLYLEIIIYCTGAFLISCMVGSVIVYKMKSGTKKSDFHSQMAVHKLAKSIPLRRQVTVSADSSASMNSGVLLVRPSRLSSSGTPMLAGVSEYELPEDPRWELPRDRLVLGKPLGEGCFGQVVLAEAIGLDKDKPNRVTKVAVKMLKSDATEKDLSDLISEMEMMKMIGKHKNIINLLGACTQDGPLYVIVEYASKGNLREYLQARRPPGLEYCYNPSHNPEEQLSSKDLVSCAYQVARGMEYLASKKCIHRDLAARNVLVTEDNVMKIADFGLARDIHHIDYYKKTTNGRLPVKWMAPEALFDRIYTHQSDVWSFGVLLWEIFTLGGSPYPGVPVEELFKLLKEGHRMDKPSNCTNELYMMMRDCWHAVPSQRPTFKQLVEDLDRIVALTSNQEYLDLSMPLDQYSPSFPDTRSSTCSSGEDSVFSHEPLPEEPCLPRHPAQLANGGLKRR
Sequence of cell surface receptor composed of FGFR1c and co-receptor beta-Klotho (KLB) (Q86Z14 whole entry, chain 2 of 2): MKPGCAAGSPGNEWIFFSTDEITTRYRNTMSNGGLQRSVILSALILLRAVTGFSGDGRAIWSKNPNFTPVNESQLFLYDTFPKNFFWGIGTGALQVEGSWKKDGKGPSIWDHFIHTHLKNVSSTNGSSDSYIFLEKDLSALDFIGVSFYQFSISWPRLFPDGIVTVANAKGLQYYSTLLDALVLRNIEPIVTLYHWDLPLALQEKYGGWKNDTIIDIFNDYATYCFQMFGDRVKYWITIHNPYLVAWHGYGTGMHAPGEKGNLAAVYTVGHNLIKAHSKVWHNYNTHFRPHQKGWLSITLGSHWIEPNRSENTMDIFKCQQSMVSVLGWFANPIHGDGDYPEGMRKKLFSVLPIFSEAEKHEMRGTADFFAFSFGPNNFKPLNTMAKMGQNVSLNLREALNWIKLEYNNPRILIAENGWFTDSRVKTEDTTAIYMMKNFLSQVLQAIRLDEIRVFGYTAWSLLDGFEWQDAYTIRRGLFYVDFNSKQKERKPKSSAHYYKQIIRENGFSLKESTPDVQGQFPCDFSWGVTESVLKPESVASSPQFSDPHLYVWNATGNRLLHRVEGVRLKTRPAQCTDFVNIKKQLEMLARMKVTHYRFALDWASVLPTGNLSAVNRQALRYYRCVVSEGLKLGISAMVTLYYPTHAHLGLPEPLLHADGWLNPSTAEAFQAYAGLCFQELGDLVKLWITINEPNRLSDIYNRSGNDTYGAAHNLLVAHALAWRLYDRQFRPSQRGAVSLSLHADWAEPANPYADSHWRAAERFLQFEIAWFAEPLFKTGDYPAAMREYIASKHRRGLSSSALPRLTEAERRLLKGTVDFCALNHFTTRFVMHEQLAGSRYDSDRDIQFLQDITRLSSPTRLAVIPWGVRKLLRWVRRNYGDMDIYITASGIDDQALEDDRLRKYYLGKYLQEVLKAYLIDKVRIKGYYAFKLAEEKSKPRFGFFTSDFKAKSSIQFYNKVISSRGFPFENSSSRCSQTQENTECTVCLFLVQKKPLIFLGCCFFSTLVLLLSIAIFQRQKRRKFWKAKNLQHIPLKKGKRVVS
Sequence of human FGFR1c/KLB cell surface receptor complex on iLite FGF21 reporter cells (P11362 22-822, chain 1 of 2): as the sequence (P11362 22-822, chain 1 of 2) above
Sequence of human FGFR1c/KLB cell surface receptor complex on iLite FGF21 reporter cells (Q86Z14 whole entry, chain 2 of 2): as the sequence (Q86Z14 whole entry, chain 2 of 2) above

B1: 16H7 variant, light chain G24P (antibody, human IgG4 S228P, lambda, V domains shown)
VH: not shown
VL: SYVLTQPPSVSVAPGQTARITCGPNNIGSESVHWYQQKPGQAPVLVVYDDSDRPSGIPERFSGSNSGNTATLTISRVEAGDEADYYCQVWDGNSDHVVFGGGTKLTVLG
Regarding B1, the “Mean E max (%)” value in experiment [1] is 110%.

B2: 16H7 light chain variant V97S (antibody, IgG4, V domains shown)
VH: not shown
VL: B1 VL with P24G, V97S
As to B2, in experiment [2], the “Mean E max, Luciferase reporter gene assay” value is 84% and the “Mean EC50, Luciferase reporter gene assay” value (“Mean EC50” for short) was determined as 0.308 nM.

B3: 16H7 light chain variant D49L (antibody, IgG4, V domains shown)
VH: not shown
VL: B1 VL with P24G, D49L
Consider B3, for which, in experiment [2], the “Mean E max, Luciferase reporter gene assay” value amounted to 92% and the “Mean EC50” value was determined as 0.529 nM.

B4: 16H7 light chain variant H33K (antibody, IgG4, V domains shown)
VH: not shown
VL: B1 VL with P24G, H33K
As to B4, in experiment [2], the “Mean E max, Luciferase reporter gene assay” value turned out to be 96% and the “Mean EC50” value was 0.174 nM.

B5: 16H7 light chain variant H96P (antibody, IgG4, V domains shown)
VH: not shown
VL: B1 VL with P24G, H96P
As to B5, the “Mean E max, Luciferase reporter gene assay” value in experiment [2] turned out to be 50%.

B6: 16H7 light chain variant D49R (antibody, IgG4, V domains shown)
VH: not shown
VL: B1 VL with P24G, D49R
Consider B6, for which, in experiment [2], the “Mean E max, Luciferase reporter gene assay” value is 72% and the “Mean EC50” value worked out at 1.86 nM.

B7: 16H7 light chain variant D49V (antibody, IgG4, V domains shown)
VH: not shown
VL: B1 VL with P24G, D49V
Regarding B7, in experiment [2], the “Mean E max, Luciferase reporter gene assay” value is 97% and the “Mean EC50” value is 0.206 nM.

B8: 16H7 light chain variant D49I (antibody, IgG4, V domains shown)
VH: not shown
VL: B1 VL with P24G, D49I
Take B8: in experiment [2], the “Mean E max, Luciferase reporter gene assay” value turned out to be 83% and the “Mean EC50” value was determined as 0.149 nM.

B9: 16H7 light chain variant V97H (antibody, IgG4, V domains shown)
VH: not shown
VL: B1 VL with P24G, V97H
As for B9, in experiment [2], the “Mean E max, Luciferase reporter gene assay” value was found to be 71% and the “Mean EC50” value was 1.47 nM.

B10: 16H7 light chain variant D95F (antibody, IgG4, V domains shown)
VH: not shown
VL: B1 VL with P24G, D95F
In the case of B10, the “Mean E max, Luciferase reporter gene assay” value in experiment [2] is -1%.

B11: 16H7 light chain variant V97A (antibody, IgG4, V domains shown)
VH: not shown
VL: B1 VL with P24G, V97A
B11: in experiment [2], the “Mean E max, Luciferase reporter gene assay” value turned out to be 68% and the “Mean EC50” value was found to be 2.09 nM.

B12: 16H7 light chain variant D95N (antibody, IgG4, V domains shown)
VH: not shown
VL: B1 VL with P24G, D95N
For the molecule B12, in experiment [2], the “Mean E max, Luciferase reporter gene assay” value was 78% and the “Mean EC50” value was found to be 1.03 nM.

B13: 16H7 light chain variant V97G (antibody, IgG4, V domains shown)
VH: not shown
VL: B1 VL with P24G, V97G
On to B13, for which, in experiment [2], the “Mean E max, Luciferase reporter gene assay” value came out at 75% and the “Mean EC50” value worked out at 0.51 nM.

B14: 16H7 light chain variant D49F (antibody, IgG4, V domains shown)
VH: not shown
VL: B1 VL with P24G, D49F
Turning to B14, in experiment [2], the “Mean E max, Luciferase reporter gene assay” value is 94% and the “Mean EC50” value is 0.256 nM.

B15: 16H7 light chain variant D49Y (antibody, IgG4, V domains shown)
VH: not shown
VL: B1 VL with P24G, D49Y
As for B15, in experiment [2], the “Mean E max, Luciferase reporter gene assay” value worked out at 99% and the “Mean EC50” value amounted to 0.151 nM.

B16: 16H7 light chain variant D95E (antibody, IgG4, V domains shown)
VH: not shown
VL: B1 VL with P24G, D95E
Turning to B16, in experiment [2], the “Mean E max, Luciferase reporter gene assay” value turned out to be 44% and the “Mean EC50” value was 8.04 nM.

B17: 16H7 light chain variant V97R (antibody, IgG4, V domains shown)
VH: not shown
VL: B1 VL with P24G, V97R
Consider B17, for which the “Mean E max, Luciferase reporter gene assay” value in experiment [2] is -1%.

B18: 16H7 light chain variant D49M (antibody, IgG4, V domains shown)
VH: not shown
VL: B1 VL with P24G, D49M
B18: in experiment [2], the “Mean E max, Luciferase reporter gene assay” value turned out to be 85% and the “Mean EC50” value was 0.224 nM.

B19: 16H7 light chain variant D49T (antibody, IgG4, V domains shown)
VH: not shown
VL: B1 VL with P24G, D49T
Take B19: in experiment [2], the “Mean E max, Luciferase reporter gene assay” value amounted to 89% and the “Mean EC50” value was found to be 0.107 nM.

B20: 16H7 light chain variant D49P (antibody, IgG4, V domains shown)
VH: not shown
VL: B1 VL with P24G, D49P
With B20, in experiment [2], the “Mean E max, Luciferase reporter gene assay” value amounted to 96% and the “Mean EC50” value was 0.195 nM.

B21: 16H7 light chain variant D49C (antibody, IgG4, V domains shown)
VH: not shown
VL: B1 VL with P24G, D49C
For B21, in experiment [2], the “Mean E max, Luciferase reporter gene assay” value is 85% and the “Mean EC50” value amounted to 0.789 nM.

B22: 16H7 light chain variant V97D (antibody, IgG4, V domains shown)
VH: not shown
VL: B1 VL with P24G, V97D
On to B22, for which, in experiment [2], the “Mean E max, Luciferase reporter gene assay” value worked out at 67% and the “Mean EC50” value is 0.375 nM.

B23: 16H7 light chain variant D49K (antibody, IgG4, V domains shown)
VH: not shown
VL: B1 VL with P24G, D49K
On to B23, for which, in experiment [2], the “Mean E max, Luciferase reporter gene assay” value worked out at 83% and the “Mean EC50” value worked out at 1.34 nM.

B24: 16H7 light chain variant D49E (antibody, IgG4, V domains shown)
VH: not shown
VL: B1 VL with P24G, D49E
In the case of B24, in experiment [2], the “Mean E max, Luciferase reporter gene assay” value is 87% and the “Mean EC50” value was determined as 0.193 nM.

B25: 16H7 light chain variant V97P (antibody, IgG4, V domains shown)
VH: not shown
VL: B1 VL with P24G, V97P
For the molecule B25, in experiment [2], the “Mean E max, Luciferase reporter gene assay” value worked out at 65% and the “Mean EC50” value was 2.55 nM.

B26: 16H7 light chain variant D49H (antibody, IgG4, V domains shown)
VH: not shown
VL: B1 VL with P24G, D49H
Consider B26, for which, in experiment [2], the “Mean E max, Luciferase reporter gene assay” value was found to be 90% and the “Mean EC50” value was determined as 0.183 nM.

B27: 16H7 light chain variant V97K (antibody, IgG4, V domains shown)
VH: not shown
VL: B1 VL with P24G, V97K
As for B27, in experiment [2], the “Mean E max, Luciferase reporter gene assay” value was 96% and the “Mean EC50” value was 0.444 nM.

B28: 16H7 light chain variant V97E (antibody, IgG4, V domains shown)
VH: not shown
VL: B1 VL with P24G, V97E
Regarding B28, in experiment [2], the “Mean E max, Luciferase reporter gene assay” value was found to be 92% and the “Mean EC50” value worked out at 0.15 nM.

B29: 16H7 light chain variant D50P (antibody, IgG4, V domains shown)
VH: not shown
VL: B1 VL with P24G, D50P
With B29, in experiment [2], the “Mean E max, Luciferase reporter gene assay” value is 77% and the “Mean EC50” value turned out to be 0.124 nM.

B30: 16H7 light chain variant D49N (antibody, IgG4, V domains shown)
VH: not shown
VL: B1 VL with P24G, D49N
Consider B30, for which, in experiment [2], the “Mean E max, Luciferase reporter gene assay” value came to 108% and the “Mean EC50” value was found to be 0.19 nM.

B31: 16H7 variant, light chain N25F (antibody, human IgG4 S228P, lambda, V domains shown)
VH: not shown
VL: B1 VL with P24G, N25F
Take B31: the “Mean E max (%)” value in experiment [1] came to 104%.

Source of the values: US20220010021A1 (Sanofi, published 2022).
